Source: publication PMC6797743, “Dual self-assembly of supramolecular peptide nanotubes to provide stabilisation in water” (Nature Communications, 2019)
[ ]: non-standard residue; d: D form. pDMA = poly(N,N-dimethylacrylamide) hydrophilic homopolymer (2)

Biological target: the molecule itself
Experiment: static light scattering (SLS); conjugates in water, 0.1-3.0 mg mL^-1, filtered (0.45 um PTFE); before and after 1 h of sonication (1 h and 3 days of standing); Nagg = molecular weight of the aggregate / molecular weight of the unimer; length = Nagg x 0.5 nm

B1: CP-(pDMA)2 (4), cyclic peptide-hydrophilic polymer conjugate (peptide)
peptide: cyclo([dL]K(pDMA)[dL]W[dL]K(pDMA)[dL]W)
notes: cyclo(D-Leu-Lys-D-Leu-Trp)2, printed in three-letter code; designed cyclic octapeptide of alternating D and L residues (cyclic peptide 10); the same CP as in m1; also called control conjugate; fully hydrophilic control conjugate
  stoichiometry N: 25
